# Measured values from US20230058489A1, “COMBINATION COMPRISING A TIM-3 INHIBITOR AND A HYPOMETHYLATING AGENT FOR USE IN TREATING MYELODYSPLASTIC SYNDROME OR CHRONIC MYELOMONOCYTIC LEUKEMIA” (Novartis AG, priority 2020, published 2023).
# “Also recorded” adds a separate entry of the source.
# Experiments:
# [1] = Pharmacokinetics of MBG453 in studies CMBG453X2101 and CPDR001X2105; format: in vivo, human
# Protocol: At lower doses (at 80 mg and below for Q2W dosing or at 240 mg and below for Q4W dosing), the PK was nonlinear, with faster elimination at lower concentrations. PK appeared linear with an approximate proportional dose-exposure (AUC and Cmax) relationship at doses of 240 mg and above for Q2W dosing and at doses of 800 mg and above for Q4W dosing. […] The dose of 800 mg Q4W has similar AUCtau as 400 mg Q2W at the steady state.
# [2] = tested on: TIM-3-overexpressing Raji cells; experiment: Antibody-dependent cellular phagocytosis (ADCP) by PMA-differentiated THP-1 cells, flow cytometry; format: cell-based, human; details: E:T ratio 1:5, 30-45 minutes, FIG. 2
# Protocol: THP-1 effector cells (a human monocytic AML cell line) were differentiated into phagocytes by stimulation with 20 ng/ml phorbol 12-myristate 13-acetate (PMA) for two to three days at 37° C., 5% CO2. PMA-stimulated THP-1 cells were washed in FACS Buffer (PBS with 2 mM EDTA) in the flask and then detached by treatment with Accutase (Innovative Cell Technologies). The target TIM-3-overexpressing Raji cells were labelled with 5.5 μM CellTrace CFSE (ThermoFisherScientific) as per manufacturer's instructions. […] Co-cultures were incubated for 30-45 minutes at 37° C., 5% CO2. Phagocytosis was then stopped with a 4% Formaldehyde fixation (diluted from 16% stock, ThermoFisherScientific), and cells were stained with an APC-conjugated anti-CD11c antibody (BD Bioscience). ADCP was measured by a flow cytometry based assay on a BD FACS Canto II. Phagocytosis was evaluated as a percentage of the THP-1 cells double positive for CFSE (representing the phagocytosed Raji cell targets) and CD11c from the THP-1 (effector) population. […] Negative control IgG4 antibody is shown in triangles.
# FcγR1a (CD64) = target: T1, FcγR1a (CD64) (Homo sapiens, UniProt P12314); experiment: Jurkat-FcγR1a NFAT luciferase reporter co-culture with TIM-3+ Raji cells; format: cell-based; details: 500 ng/ml to 6 pg/ml, E:T 6:1, 6 hours, FIG. 3
# T1 construct: host or cells: Jurkat cells, co-cultured with TIM-3-expressing Raji target cells
# Protocol: The TIM-3-expressing Raji cells were used as target cells in a co-culture assay with engineered effector Jurkat cells stably transfected to overexpress FcγR1a (CD64) and a luciferase reporter gene under the control of an NFAT (nuclear factor of activated T cells) response element (NFAT-RE; Promega). […] The plate was then centrifuged at 300×g for 5 minutes at room temperature at the assay start and incubated for 6 hours in a 37° C., 5% CO2 humidified incubator. The activation of the NFAT dependent reporter gene expression induced by the binding to FcγR1a was quantified by luciferase activity after cell lysis and the addition of a substrate solution (Bio-GLO).
# FcγRIIa (CD32a) = target: T2, FcγRIIa (CD32a) (Homo sapiens, UniProt P12318); experiment: Separate FcγRIIa engagement assay; format: cell-based
# T2 sequence (P12318 34-317): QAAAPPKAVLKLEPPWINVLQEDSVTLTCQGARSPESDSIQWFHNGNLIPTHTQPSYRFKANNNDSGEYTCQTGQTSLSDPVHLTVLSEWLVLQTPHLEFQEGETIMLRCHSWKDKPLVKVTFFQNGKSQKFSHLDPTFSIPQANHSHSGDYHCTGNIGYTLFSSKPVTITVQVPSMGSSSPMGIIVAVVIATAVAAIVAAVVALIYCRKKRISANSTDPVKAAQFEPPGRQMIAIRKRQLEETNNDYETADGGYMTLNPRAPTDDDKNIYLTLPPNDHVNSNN
# T1 sequence (P12314 16-374): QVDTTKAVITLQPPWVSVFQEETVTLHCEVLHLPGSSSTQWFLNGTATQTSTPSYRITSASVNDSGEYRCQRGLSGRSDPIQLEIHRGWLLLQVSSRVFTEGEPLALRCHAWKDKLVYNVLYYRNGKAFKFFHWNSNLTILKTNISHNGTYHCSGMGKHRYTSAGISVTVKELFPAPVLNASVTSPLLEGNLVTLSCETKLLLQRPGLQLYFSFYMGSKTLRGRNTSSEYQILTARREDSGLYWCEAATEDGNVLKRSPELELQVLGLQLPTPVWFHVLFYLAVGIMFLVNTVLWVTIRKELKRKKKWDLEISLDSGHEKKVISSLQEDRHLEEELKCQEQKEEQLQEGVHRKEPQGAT
substance,measurement,setting,value
"MBG453: high-affinity, ligand-blocking, humanized anti-TIM-3 IgG4 antibody, disclosed in WO2015/117002","PK linearity, dose-exposure (AUC and Cmax) relationship","[1]; 240 mg and above for Q2W dosing, 800 mg and above for Q4W dosing",linear
same,PK linearity,[1]; at 80 mg and below for Q2W dosing or at 240 mg and below for Q4W dosing,nonlinear
same,AUCtau of 800 mg Q4W compared with 400 mg Q2W,[1]; steady state,similar
same,phagocytosis (percentage of THP-1 cells double positive for CFSE and CD11c),[2],modest; also recorded: enhanced THP-1 cell phagocytosis of TIM-3+ Raji cells in a dose-dependent manner
same,"engagement of FcγR1a reporter cell line, luciferase activity",FcγR1a (CD64),modest dose-response engagement
same,engagement of FcγRIIa (CD32a),FcγRIIa (CD32a),did not engage
